Data published in US20060153853A1 (UNIVERSITY OF ADELAIDE, published 2006).

What was measured:
[1] = biological target: T1, IGF-I (insulin-like growth factor I) (UniProt P05019 49-118); test: SPR (BIAcore), IGF-I amine-coupled to CM5 chip; ratio against hIGFBP-2
T1 construct: Amine-coupled (70 RU) to a CM-5 biosensor chip; also added to HT-29 cells; also called IGF-1
Method: (§1) The IGF surface was regenerated with 10 mM HCl.
(§2) The dissociation constant (KD) was determined from the calculation of kd/kₐ, where kₐ is the association rate and kd is the dissociation rate.

[2] = biological target: T2, IGF-II (insulin-like growth factor II) (UniProt P01344 25-91); test: SPR (BIAcore), IGF-II amine-coupled to CM5 chip; ratio against hIGFBP-2
T2 construct: Amine-coupled (70 RU) to a CM-5 biosensor chip
T2 sequence (P01344 25-91 limits assumed): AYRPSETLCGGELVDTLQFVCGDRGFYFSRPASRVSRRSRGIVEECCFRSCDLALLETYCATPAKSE
Method: as §1
(§3) Table 3. […] Data was analysed using BIAevaluation software 3.0 and fit to a Langmuir 1:1 binding model. The dissociation constant (KD) was determined from the calculation of kd/kₐ, where kₐ is the association rate and kd is the dissociation rate.

[3] = biological target: T1, IGF-I (insulin-like growth factor I); test: SPR (BIAcore) on immobilised IGF-I; text summing up Table 2
Method: as §1, §2

[4] = biological target: T2, IGF-II (insulin-like growth factor II); test: SPR (BIAcore) on immobilised IGF-II; text summing up Table 3
Method: as §1, §3

T1 sequence (P05019 49-118 limits assumed): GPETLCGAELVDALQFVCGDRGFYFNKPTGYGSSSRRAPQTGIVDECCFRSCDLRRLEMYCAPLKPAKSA

Row | Rel. KD (KD of hIGFBP-2/KD of hIGFBP-2 mutant) [1] | Rel. KD (KD of hIGFBP-2/KD of hIGFBP-2 mutant) [2] | fold higher affinity than native hIGFBP-2 [3] [fold] | fold higher affinity than native hIGFBP-2 [4] [fold] | Binder
1 | 0.64 | 0.37 |  |  | K234AHis hIGFBP-2 (other, human, mature; also called K234A hIGFBP-2; K234AHis IGFBP-2) EVLFRCPPCTPERLAACGPPPVAPPAAVAAVAGGARMPCAELVREPGCGCCSVCARLEGEACGVYTPRCGQGLRCYPHPGSELPLQALVMGEGTCEKRRDAEYGASPEQVADNGDDHSEGGLVENHVDSTMNMLGGGGSAGRKPLKSGMKELAVFREKVTEQHRQMGKGGKHHLGLEEPKKLRPPPARTPCQQELDQVLERISTMRLPDERGPLEHLYSLHIPNCDKHGLYNLAQCKMSLNGQRGECWCVNPNTGKLIQGAPTIRGDPECHLFYNEQQEARGVHTQRMQHHHHHH
2 | 2.29 | 2.9 | ~2 | ~2 | K237AHis hIGFBP-2 (other, human, mature) EVLFRCPPCTPERLAACGPPPVAPPAAVAAVAGGARMPCAELVREPGCGCCSVCARLEGEACGVYTPRCGQGLRCYPHPGSELPLQALVMGEGTCEKRRDAEYGASPEQVADNGDDHSEGGLVENHVDSTMNMLGGGGSAGRKPLKSGMKELAVFREKVTEQHRQMGKGGKHHLGLEEPKKLRPPPARTPCQQELDQVLERISTMRLPDERGPLEHLYSLHIPNCDKHGLYNLKQCAMSLNGQRGECWCVNPNTGKLIQGAPTIRGDPECHLFYNEQQEARGVHTQRMQHHHHHH

Continued, binder first:

Row | Binder | Rel. KD (KD of hIGFBP-2/KD of hIGFBP-2 mutant) [1] | Rel. KD (KD of hIGFBP-2/KD of hIGFBP-2 mutant) [2] | fold higher affinity than native hIGFBP-2 [3] [fold] | fold higher affinity than native hIGFBP-2 [4] [fold]
3 | K227AHis hIGFBP-2 (other, human, mature) EVLFRCPPCTPERLAACGPPPVAPPAAVAAVAGGARMPCAELVREPGCGCCSVCARLEGEACGVYTPRCGQGLRCYPHPGSELPLQALVMGEGTCEKRRDAEYGASPEQVADNGDDHSEGGLVENHVDSTMNMLGGGGSAGRKPLKSGMKELAVFREKVTEQHRQMGKGGKHHLGLEEPKKLRPPPARTPCQQELDQVLERISTMRLPDERGPLEHLYSLHIPNCDAHGLYNLKQCKMSLNGQRGECWCVNPNTGKLIQGAPTIRGDPECHLFYNEQQEARGVHTQRMQHHHHHH | 1.34 | 1.27 |  | 
4 | K180A K181AHis hIGFBP-2 (other, human, mature; also called K180A, K181A mutation) EVLFRCPPCTPERLAACGPPPVAPPAAVAAVAGGARMPCAELVREPGCGCCSVCARLEGEACGVYTPRCGQGLRCYPHPGSELPLQALVMGEGTCEKRRDAEYGASPEQVADNGDDHSEGGLVENHVDSTMNMLGGGGSAGRKPLKSGMKELAVFREKVTEQHRQMGKGGKHHLGLEEPAALRPPPARTPCQQELDQVLERISTMRLPDERGPLEHLYSLHIPNCDKHGLYNLKQCKMSLNGQRGECWCVNPNTGKLIQGAPTIRGDPECHLFYNEQQEARGVHTQRMQHHHHHH | 0.87 | 0.68 |  | 
